Measurements published in US20140120095A1 (Boehringer Ingelheim, published 2014).
Read-outs that look alike come from different tables or passages of the source.

Columns and labels:
[1] = target: T1, VEGF (used to stimulate HUVEC cells) (UniProt P15692-4 27-191, limits assumed); assay: cell-based or functional assay
[2] = target: T1, VEGF (used to stimulate HUVEC cells); assay: cell-based or functional assay; remark: listed apart in the source
[3] = target: T2, recombinant human VEGF165 (human, UniProt P15692-4 27-191, biotinylated in the competition assays); assay: AlphaScreen, hVEGF165/hVEGFR2-Fc competition; set-up: % inhibition: concentration or dose not given beside the values
T2 construct: Bought protein; also called hVEGF165; rhVEGF165
Target sequence in this assay (P15692 other isoform, or with tags, fused parts or gaps): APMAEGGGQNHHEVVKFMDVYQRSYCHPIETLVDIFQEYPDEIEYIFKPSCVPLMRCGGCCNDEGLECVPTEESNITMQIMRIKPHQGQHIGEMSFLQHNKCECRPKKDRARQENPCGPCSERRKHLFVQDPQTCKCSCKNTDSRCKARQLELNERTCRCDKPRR

[4] = target: T2, recombinant human VEGF165; assay: AlphaScreen, hVEGF165/hVEGFR1-Fc competition, -HSA
[5] = target: T1, VEGF (used to stimulate HUVEC cells); assay: cell-based or functional assay; remark: listed apart in the source
[6] = target: T2, recombinant human VEGF165; assay: SPR Biacore, VEGF165
[7] = target: T2, recombinant human VEGF165; assay: AlphaScreen, hVEGF165/hVEGFR2-Fc competition, -HSA
[8] = target: T2, recombinant human VEGF165; assay: AlphaScreen, hVEGF165/hVEGFR2-Fc competition, -HSA; remark: listed apart in the source
[9] = target: T1, VEGF (used to stimulate HUVEC cells); assay: cell-based or functional assay; remark: listed apart in the source
[10] = target: T2, recombinant human VEGF165; assay: AlphaScreen, hVEGF165/hVEGFR2-Fc competition, +5 uM HSA
Description: (§1) These 2 competition assays are also performed after preincubation of the VHHs with 5 μM human serum albumin.

[11] = target: T2, recombinant human VEGF165; assay: AlphaScreen, hVEGF165/hVEGFR1-Fc competition, -HSA; remark: listed apart in the source
[12] = target: T2, recombinant human VEGF165; assay: AlphaScreen, hVEGF165/hVEGFR2-Fc competition, +5 uM HSA; remark: listed apart in the source
Description: as §1

[13] = target: T2, recombinant human VEGF165; assay: AlphaScreen, hVEGF165/hVEGFR2-Fc competition
[14] = target: T3, VEGFC (UniProt P49767 103-227, limits assumed); assay: binding ELISA on coated VEGFC (Example 12.8), receptor positive control, OD 450 nm
T3 sequence (looked up): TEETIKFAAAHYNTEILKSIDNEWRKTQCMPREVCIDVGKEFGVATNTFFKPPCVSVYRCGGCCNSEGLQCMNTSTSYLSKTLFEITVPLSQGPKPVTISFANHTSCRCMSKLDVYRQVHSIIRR
Description: Binding to VEGFB, VEGFC, VEGFD and PIGF is assessed via a solid phase binding ELISA. […] Wells are blocked with a casein solution (1% in PBS). […] As positive controls serial dilutions of the appropriate receptors are taken along and detected with horseradish peroxidase (HRP)-conjugated goat anti-human IgG, Fc specific antibody (Jackson Immuno Research Laboratories Inc., West Grove, Pa., USA) and a subsequent enzymatic reaction in the presence of the substrate TMB (3,3′,5,5′-tetramentylbenzidine) (Pierce, Rockford, Ill., USA).

[15] = target: T4, human VEGFR2-Fc chimera (R&D Systems) (human, UniProt P35968 20-764); assay: binding ELISA on coated recombinant human VEGF121 (Example 12.7), positive control, OD 450 nm
T4 construct: also called hVEGFR2-Fc; VEGFR2-huFc
Description: Binding to recombinant human VEGF121 is assessed via a solid phase binding ELISA. […] Wells are blocked with a casein solution (1% in PBS).

B1: VEGFBII23B04 (VHH, not shown: small tags and cut ends)
VHH: EVQLVESGGGLVQTGDSLRLSCEVSGRTFSSYSMGWFRQAQGKEREFVVAISKGGYKYDSVSLEGRFTISKDNAKNTVYLQINSLKPEDTAVYYCASSRAYGSSRLRLADTYEYWGQGTQVTVSS
notes: also called VEGFBII23B4; VEGFBII23B04 (wt)
IC50, VEGF HUVEC Erk phosphorylation assay [1]: 0.37 nM | IC50, VEGF HUVEC proliferation assay [2]: 0.36 nM | % inhibition [3]: 100% | IC50 [3]: 0.169 nM | % inh [4]: 44% | IC50 [4]: 0.43 nM | % inhibition, VEGF HUVEC proliferation assay [5]: 92% | IC50, VEGF HUVEC proliferation assay [5]: 0.68 nM | Kd [6]: 0.56 nM | % inh [7]: 100% | IC50 [7]: 0.19 nM | % inh [8]: 100% | IC50 [8]: 0.22 nM | % inhibition, VEGF HUVEC proliferation assay, -HSA [9]: 87% | IC50, VEGF HUVEC proliferation assay, +HSA [9]: 0.69 nM | IC50, VEGF HUVEC proliferation assay, -HSA [9]: 0.78 nM | % inh [10]: 100% | IC50 [10]: 0.3 nM | % inh [11]: 48% | IC50 [11]: 0.45 nM | % inh [12]: 100% | IC50 [12]: 0.2 nM | % inhibition [13]: 100% | IC50 [13]: 0.152 nM

B2: human VEGFR2-Fc chimera (Fc fusion, UniProt P35968 20-764, looked up)
chain: ASVGLPSVSLDLPRLSIQKDILTIKANTTLQITCRGQRDLDWLWPNNQSGSEQRVEVTECSDGLFCKTLTIPKVIGNDTGAYKCFYRETDLASVIYVYVQDYRSPFIASVSDQHGVVYITENKNKTVVIPCLGSISNLNVSLCARYPEKRFVPDGNRISWDSKKGFTIPSYMISYAGMVFCEAKINDESYQSIMYIVVVVGYRIYDVVLSPSHGIELSVGEKLVLNCTARTELNVGIDFNWEYPSSKHQHKKLVNRDLKTQSGSEMKKFLSTLTIDGVTRSDQGLYTCAASSGLMTKKNSTFVRVHEKPFVAFGSGMESLVEATVGERVRIPAKYLGYPPPEIKWYKNGIPLESNHTIKAGHVLTIMEVSERDTGNYTVILTNPISKEKQSHVVSLVVYVPPQIGEKSLISPVDSYQYGTTQTLTCTVYAIPPPHHIHWYWQLEEECANEPSQAVSVTNPYPCEEWRSVEDFQGGNKIEVNKNQFALIEGKNKTVSTLVIQAANVSALYKCEAVNKVGRGERVISFHVTRGPEITLQPDMQPTEQESVSLWCTADRSTFENLTWYKLGPQPLPIHVGELPTPVCKNLDTLWKLNATMFSNSTNDILIMELKNASLQDQGDYVCLAQDRKTKKRHCVVRQLTVLERVAPTITGNLENQTTSIGESIEVSCTASGNPPPQIMWFKDNETLVEDSGIVLKDGNRNLTIRRVRKEDEGLYTCQACSVLGCAKVEAFFIIEGAQEKTNLE
notes: also called hVEGFR2-Fc; VEGFR2-huFc; not shown: human Fc part of the bought chimera; not described
EC50 (read off the curve) [14]: ~4 nM

B3: recombinant human VEGF121 (R&D Systems) (ligand, UniProt P15692-9 27-147, looked up)
chain: APMAEGGGQNHHEVVKFMDVYQRSYCHPIETLVDIFQEYPDEIEYIFKPSCVPLMRCGGCCNDEGLECVPTEESNITMQIMRIKPHQGQHIGEMSFLQHNKCECRPKKDRARQEKCDKPRR
notes: also called rhVEGF121
binding result [15]: binds
